This is an account of results in patent US11767359B2, “C3-binding agents and methods of use thereof” (NGM Biopharmaceuticals, Inc., priority 2018, dated 2023).

In one data set the target is Factor Bb (Homo sapiens, UniProt P00751). The experiment in a line: Binding profile: binding to Factor Bb. As to conditions: relative to the binding of the negative control mIgG2 antibody. The source says:
(§1) The anti-C3 antibodies described herein were characterized for their ability to bind a number of other components of the complement cascade. Antibodies were screened for binding to C3, C3a, C3b, C3c, C3d, iC3b, and Factor Bb. All the anti-C3 antibodies included in Table 13 were able to block complement activation. The data are relative to the binding of the negative control mIgG2 antibody.

Another data set addresses C3c (Homo sapiens, UniProt P01024). The experiment in a line: Binding profile: binding to C3c. As to conditions: relative to the binding of the negative control mIgG2 antibody.
From the text: as §1

The target in the next data set is iC3b (Homo sapiens, UniProt P01024). As to the kind of experiment: Binding profile: binding to iC3b. As to conditions: relative to the binding of the negative control mIgG2 antibody.
Chain of iC3b (P01024 23-667 limits assumed): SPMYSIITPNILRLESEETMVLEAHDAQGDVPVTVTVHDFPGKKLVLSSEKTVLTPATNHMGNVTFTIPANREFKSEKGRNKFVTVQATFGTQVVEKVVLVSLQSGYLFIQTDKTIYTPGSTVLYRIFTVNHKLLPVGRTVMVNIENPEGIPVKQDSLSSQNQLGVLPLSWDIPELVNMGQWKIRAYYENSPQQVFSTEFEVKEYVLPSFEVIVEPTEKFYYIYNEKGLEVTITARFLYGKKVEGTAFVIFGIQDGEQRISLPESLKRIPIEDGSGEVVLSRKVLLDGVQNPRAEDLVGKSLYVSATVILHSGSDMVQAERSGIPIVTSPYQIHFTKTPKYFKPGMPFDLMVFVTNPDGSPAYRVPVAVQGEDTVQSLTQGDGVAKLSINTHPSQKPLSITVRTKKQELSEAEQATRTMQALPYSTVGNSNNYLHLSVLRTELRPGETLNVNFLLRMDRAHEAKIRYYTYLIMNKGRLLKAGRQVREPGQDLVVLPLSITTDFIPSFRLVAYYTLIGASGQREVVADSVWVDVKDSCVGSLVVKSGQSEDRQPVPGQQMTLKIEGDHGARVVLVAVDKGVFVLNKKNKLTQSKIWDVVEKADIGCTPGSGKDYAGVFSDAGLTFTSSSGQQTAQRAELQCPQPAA
Chain of iC3b (P01024 749-1303 limits assumed): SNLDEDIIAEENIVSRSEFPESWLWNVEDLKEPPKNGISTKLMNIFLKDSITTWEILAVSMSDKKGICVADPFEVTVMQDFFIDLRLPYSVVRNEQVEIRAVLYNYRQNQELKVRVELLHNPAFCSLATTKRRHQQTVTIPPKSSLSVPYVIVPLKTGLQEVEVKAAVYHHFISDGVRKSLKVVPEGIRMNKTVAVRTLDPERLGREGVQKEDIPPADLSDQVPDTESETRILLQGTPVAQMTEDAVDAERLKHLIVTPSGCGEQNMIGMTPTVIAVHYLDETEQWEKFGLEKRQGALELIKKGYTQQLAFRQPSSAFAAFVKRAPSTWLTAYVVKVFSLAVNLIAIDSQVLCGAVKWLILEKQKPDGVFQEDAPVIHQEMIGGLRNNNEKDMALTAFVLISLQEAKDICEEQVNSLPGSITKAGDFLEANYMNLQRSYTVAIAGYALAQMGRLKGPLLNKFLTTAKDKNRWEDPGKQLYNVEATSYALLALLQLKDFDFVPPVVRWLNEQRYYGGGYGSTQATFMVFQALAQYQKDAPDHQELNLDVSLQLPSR
Chain of iC3b (P01024 1321-1663 limits assumed): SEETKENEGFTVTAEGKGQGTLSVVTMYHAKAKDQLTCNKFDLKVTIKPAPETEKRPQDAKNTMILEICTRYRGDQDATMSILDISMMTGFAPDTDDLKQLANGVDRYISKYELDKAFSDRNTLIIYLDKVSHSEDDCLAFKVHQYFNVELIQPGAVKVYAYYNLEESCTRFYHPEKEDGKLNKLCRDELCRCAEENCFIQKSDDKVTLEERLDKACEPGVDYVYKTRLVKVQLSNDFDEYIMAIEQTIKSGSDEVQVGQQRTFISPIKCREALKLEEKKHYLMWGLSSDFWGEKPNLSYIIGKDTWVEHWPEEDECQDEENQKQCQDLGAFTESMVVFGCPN
From the text: as §1

Data set [1] addresses T1, C3 (Homo sapiens, UniProt P01024). As to the kind of experiment: Binding affinity by Biacore, human C3. On the procedure:
The binding affinities of exemplary anti-C3 antibodies to human C3 and cyno C3 were measured using a Biacore system (GE Healthcare LifeSciences). Briefly, anti-Fc antibody (Sigma-Aldrich) was immobilized on all four flow cells of a CM5 chip using amine coupling reagents (GE Healthcare LifeSciences). Antibodies were captured on flow cells 2, 3, and 4 using flow cell 1 as a reference. Concentrations ranging from 0.62-40 nM of human C3 or cyno C3 were injected at a flow rate of 50 μL/min at 37° C. Kinetic data were collected over time and fit using the simultaneous global fit equation to yield affinity constants (KD values) for each antibody.
More recently, a number of compstatin analogs and derivatives have been generated and studied. […] A Biacore system was used to assess the binding affinities of the different molecules to human C3. […] Evaluation of COMP or COMP-PEG binding to human C3 was carried out as follows. Human C3 was immobilized on flow cell 2 of a CM5 chip using amine-coupling reagents (GE Healthcare LifeSciences) and flow cell 1 (immobilized with a similar amount of human IgG) was used as a reference. […] Similar experiments were set up with COMP-PEG (concentration range of 25-400 nM) for evaluation at 37° C. COMP-PEG binding to human C3 was also evaluated at 25° C. with modifications. […]
(In general: SPR reads the build-up and loss of mass on a sensor chip optically.)

Data set [2] is described as follows: Elevated pH stress test, deamidation at N55 of heavy chain CDR2. The class given is physicochemical.
The next data set concerns the target C3b (Homo sapiens, UniProt P01024). The experiment in a line: Binding profile: binding to C3b. The settings on record: relative to the binding of the negative control mIgG2 antibody.
From the text: as §1

Data set [3] addresses T1, C3. As to the kind of experiment: Binding profile: binding to C3. The settings on record: summary in words of Table 13.
From the text: as §1

Data set [4] in a line: Solubility of Hz38G10 dsscFv by micro-concentration. As to conditions: 10 mM sodium phosphate, 40 mM sodium chloride, 0.03% polysorbate 20, 5% sucrose, pH 6.2. Type of data set: physicochemical. The protocol:
The purified antibodies were dialyzed into buffer consisting of 10 mM sodium phosphate, 40 mM sodium chloride, 0.03% polysorbate 20, and 5% sucrose, pH 6.2. The solution was micro-concentrated using 10,000 Da NMWCO spin concentrator at 3,000×g at room temperature. Protein concentration was measured on an Agilent Cary 60 UV-VIS Solo VPE spectrophotometer.

Changes are numbered by the printed parent chain. Names may count otherwise.

Chain of Factor Bb (P00751 260-764 limits assumed): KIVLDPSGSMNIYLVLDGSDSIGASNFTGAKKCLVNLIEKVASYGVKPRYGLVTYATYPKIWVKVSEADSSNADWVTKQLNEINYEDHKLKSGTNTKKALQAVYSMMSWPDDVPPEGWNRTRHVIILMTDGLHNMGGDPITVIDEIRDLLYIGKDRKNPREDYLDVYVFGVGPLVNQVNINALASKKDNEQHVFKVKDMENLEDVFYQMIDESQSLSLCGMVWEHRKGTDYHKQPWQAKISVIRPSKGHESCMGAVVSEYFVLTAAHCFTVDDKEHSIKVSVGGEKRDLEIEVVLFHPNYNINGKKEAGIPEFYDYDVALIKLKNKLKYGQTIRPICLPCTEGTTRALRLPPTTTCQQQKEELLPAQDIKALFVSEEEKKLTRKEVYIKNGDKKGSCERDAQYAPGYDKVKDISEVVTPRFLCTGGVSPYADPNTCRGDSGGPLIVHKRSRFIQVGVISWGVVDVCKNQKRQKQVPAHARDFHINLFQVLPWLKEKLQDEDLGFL
Chain of C3c (P01024 23-667 limits assumed): as the sequence (P01024 23-667 limits assumed) above
Chain of C3c (P01024 749-954 limits assumed): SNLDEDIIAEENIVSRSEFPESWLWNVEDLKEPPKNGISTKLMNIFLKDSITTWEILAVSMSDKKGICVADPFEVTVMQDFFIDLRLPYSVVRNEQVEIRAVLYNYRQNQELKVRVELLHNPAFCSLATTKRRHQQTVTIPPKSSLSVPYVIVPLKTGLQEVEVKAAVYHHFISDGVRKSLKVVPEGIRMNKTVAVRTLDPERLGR
Chain of C3c (P01024 1321-1663 limits assumed): as the sequence (P01024 1321-1663 limits assumed) above
T1 sequence (P01024 23-1663): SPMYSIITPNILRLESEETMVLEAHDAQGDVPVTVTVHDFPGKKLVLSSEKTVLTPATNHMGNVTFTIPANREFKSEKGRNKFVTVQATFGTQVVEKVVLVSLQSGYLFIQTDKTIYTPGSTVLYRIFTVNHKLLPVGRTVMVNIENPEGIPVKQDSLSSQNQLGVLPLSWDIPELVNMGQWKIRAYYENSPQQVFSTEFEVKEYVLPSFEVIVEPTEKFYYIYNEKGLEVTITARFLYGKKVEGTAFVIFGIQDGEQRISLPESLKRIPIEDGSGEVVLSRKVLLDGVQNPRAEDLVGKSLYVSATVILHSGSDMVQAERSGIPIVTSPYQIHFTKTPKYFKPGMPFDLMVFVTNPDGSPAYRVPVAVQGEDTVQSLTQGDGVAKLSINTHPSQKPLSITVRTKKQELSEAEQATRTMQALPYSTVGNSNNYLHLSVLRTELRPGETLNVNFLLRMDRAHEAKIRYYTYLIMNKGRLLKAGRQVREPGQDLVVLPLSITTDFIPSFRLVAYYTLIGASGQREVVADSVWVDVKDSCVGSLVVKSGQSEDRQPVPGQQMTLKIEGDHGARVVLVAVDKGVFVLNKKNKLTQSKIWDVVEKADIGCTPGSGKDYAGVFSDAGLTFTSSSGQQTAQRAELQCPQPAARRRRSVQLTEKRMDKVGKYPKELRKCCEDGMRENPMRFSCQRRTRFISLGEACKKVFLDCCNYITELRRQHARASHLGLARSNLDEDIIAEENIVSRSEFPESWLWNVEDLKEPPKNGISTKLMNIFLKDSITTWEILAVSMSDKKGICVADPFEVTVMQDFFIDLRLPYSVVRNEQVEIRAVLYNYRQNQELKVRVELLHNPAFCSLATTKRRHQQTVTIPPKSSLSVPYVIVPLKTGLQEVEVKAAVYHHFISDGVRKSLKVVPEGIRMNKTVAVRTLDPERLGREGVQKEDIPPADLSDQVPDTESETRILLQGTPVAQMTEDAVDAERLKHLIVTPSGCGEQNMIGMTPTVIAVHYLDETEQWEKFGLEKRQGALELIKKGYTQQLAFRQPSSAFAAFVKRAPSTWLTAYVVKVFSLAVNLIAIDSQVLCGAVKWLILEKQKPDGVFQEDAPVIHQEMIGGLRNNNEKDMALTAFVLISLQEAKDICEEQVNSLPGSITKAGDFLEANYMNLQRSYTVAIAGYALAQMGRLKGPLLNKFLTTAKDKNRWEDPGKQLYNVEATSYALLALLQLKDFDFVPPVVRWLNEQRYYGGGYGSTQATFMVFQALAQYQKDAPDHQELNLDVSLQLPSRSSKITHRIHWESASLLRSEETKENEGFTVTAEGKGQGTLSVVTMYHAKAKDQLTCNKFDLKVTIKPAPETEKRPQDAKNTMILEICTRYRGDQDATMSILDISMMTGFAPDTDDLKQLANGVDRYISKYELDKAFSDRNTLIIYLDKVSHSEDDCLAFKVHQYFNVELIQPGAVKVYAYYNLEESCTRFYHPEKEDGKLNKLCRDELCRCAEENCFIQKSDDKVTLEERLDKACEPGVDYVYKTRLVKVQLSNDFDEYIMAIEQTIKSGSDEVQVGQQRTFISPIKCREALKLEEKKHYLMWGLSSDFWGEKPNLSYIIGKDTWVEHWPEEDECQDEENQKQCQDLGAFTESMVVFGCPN
Chain of C3b (P01024 23-667 limits assumed): as the sequence (P01024 23-667 limits assumed) above
Chain of C3b (P01024 749-1663 limits assumed): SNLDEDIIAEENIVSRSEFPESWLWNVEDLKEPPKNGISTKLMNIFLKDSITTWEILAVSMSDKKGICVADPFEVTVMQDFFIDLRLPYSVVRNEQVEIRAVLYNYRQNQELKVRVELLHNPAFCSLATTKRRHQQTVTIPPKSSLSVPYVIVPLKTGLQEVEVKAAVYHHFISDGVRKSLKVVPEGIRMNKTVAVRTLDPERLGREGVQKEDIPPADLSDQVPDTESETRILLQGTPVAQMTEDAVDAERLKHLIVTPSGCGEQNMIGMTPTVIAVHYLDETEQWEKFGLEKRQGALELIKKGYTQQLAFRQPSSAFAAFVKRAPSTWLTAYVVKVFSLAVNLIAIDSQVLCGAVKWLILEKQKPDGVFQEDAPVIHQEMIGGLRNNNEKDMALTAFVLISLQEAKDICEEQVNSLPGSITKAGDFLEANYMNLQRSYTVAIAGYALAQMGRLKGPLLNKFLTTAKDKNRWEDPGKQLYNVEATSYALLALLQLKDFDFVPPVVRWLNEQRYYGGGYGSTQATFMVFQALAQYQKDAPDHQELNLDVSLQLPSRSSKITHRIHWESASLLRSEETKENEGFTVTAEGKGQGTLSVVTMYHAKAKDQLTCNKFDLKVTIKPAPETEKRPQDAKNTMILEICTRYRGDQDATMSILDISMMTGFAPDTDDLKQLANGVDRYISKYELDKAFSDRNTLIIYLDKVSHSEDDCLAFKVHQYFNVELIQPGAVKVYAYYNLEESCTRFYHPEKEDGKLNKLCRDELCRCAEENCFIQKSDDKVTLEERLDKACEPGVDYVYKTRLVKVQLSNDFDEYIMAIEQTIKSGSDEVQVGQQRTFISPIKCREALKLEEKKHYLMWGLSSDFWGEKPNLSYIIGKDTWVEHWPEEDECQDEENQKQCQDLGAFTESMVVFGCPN

B1: 28C3: mouse anti-C3 monoclonal antibody; VH SEQ ID NO:99, VL SEQ ID NO:100 (antibody, V domains shown)
VH: QVQLQQSGPELVKPGASVKISCKASGYAFNSCWMNWVKQRPGKGLEWIGRIYPGDGDTNYNGKFKGKATLTADKSSTTAYMQLSSLTSEDSAVYFCAREGRNYGYEDYWGQGTTLTVSS
VL: DIVLTQSPASLAVSLGQRATISCKASQSVDYDGDSYMNWYQQKPGQPPKLLIYAASDLESGIPARFSGSGSGTDFTLNIHPVEEEDAATYYCQQANEDPRTFGGGTKLEIK
B1: in the data set with Factor Bb, the “binding to Factor Bb” value is reported as 0.00. In addition, the “binding to C3c” value in the data set with C3c was 0.28.

B2: 63A3: mouse anti-C3 monoclonal antibody; VH SEQ ID NO:107, VL SEQ ID NO:108 (antibody, V domains shown)
VH: DVQLQESGPGLVKPSQSLSLTCSVTGYSITSGYYWNWIRQFPGNKLEWMGYIRYDGSNNYNPSLKNRISITRDTSKNQVFLKLNSVTPEDTATYYCARHYGYDGGAFDFWGQGTTLTVSS
VL: DIQMTQSPASLSASVGETVTITCRTSENIYNYLVWYQQKQGKSPQLLVYNAKTLEEGVPSRFSGSGSGTQFSLKVNSLQPEDFGSYYCQHHYGTPFTFGSGTKLEIK
For B2, the “binding to Factor Bb” value with Factor Bb is 0.00. In addition, the “binding to iC3b” value with iC3b came to 0.72. The “binding to C3c” value with C3c is listed as 0.55.

B3: 3D8: mouse anti-C3 monoclonal antibody; VH SEQ ID NO:91, VL SEQ ID NO:92 (antibody, V domains shown)
VH: EIQLQQSGAELVKPGASVKISCKASGYSFTGYNMNWVKQSHGKSLEWIGNINPYYGSTNYNQKFKGKATLTVDKSSTTAYMQLDSLTSEDSAVYYCARGYYGGNYPFAYWGQGTLVTVSA
VL: B2 VL with T25A, N31S, V34A, E55A, V75I, H91Y, F96Y, S100G, T102S, L104V
Take B3: the “binding to iC3b” value with iC3b was 0.29. For the same molecule, the “binding to C3c” value with C3c amounted to 0.17.

B4: Hz38G10(N55D): Hz38G10 variant with N55D mutation in heavy chain CDR2, mimics a fully deamidated molecule (antibody, V domains shown)
VH: QVQLVQSGAEVKKPGASVKVSCKASGYTFTDFYMDWVRQAPGQRLEWMGYIYPHDGGTTYNQQFTGRVTITVDKSASTAYMELSSLRSEDTAVYYCARRGGFDFDYWGQGTLVTVSS
VL: DIQMTQSPSSLSASVGDRVTITCKASENVDTYVSWYQQKPGKAPKLLIYGASNRYTGVPSRFSGSGSGTDFTFTISSLQPEDIATYHCGQSHSYPLTFGQGTKLEIK
Turning to B4, the “binding to human C3 as compared to Hz38G10” value with C3 [1] was “reduced binding”.

B5: Hz38G10 (G56A): Hz38G10 variant with G56A mutation in heavy chain CDR2; VH SEQ ID NO:21, VL SEQ ID NO:25 (antibody, V domains shown)
VH: B4 VH with D55N, G56A
VL: B4 VL
Turning to B5, in data set [2] (pH 8.5, Day 0), the “deamidation at the asparagine N55, Day 0” value worked out at 0.66%. Moreover, the “deamidation at the asparagine N55, Day 7” value in data set [2] (pH 8.5, Day 7) was 1.0%.

B6: 3G8: mouse anti-C3 monoclonal antibody; VH SEQ ID NO:93, VL SEQ ID NO:94 (antibody, V domains shown)
VH: EIQLQQSGAELVKPGASVKISCMASGYSFTGYNMNWVKQSHGKGLEWIGNINPYYDSTSYNQKFKGKATLTVDKSSSTAYMQLNSLTSEDSAVYYCARENYDFVGFAYWGQGTLVTVSA
VL: QIVLSQSPAILSASPGEKVTMTCRASSSVSYMHWFQQKPGSSPKPWIYVTSNLASGVPPRFSGSGSGTSYSLTISRVEAEDAATYYCQQWSTNPLTFGAGTKLELK
Turning to B6, the “binding to iC3b” value with iC3b is on record as 0.25. For the same molecule, the “binding to C3c” value with C3c is reported as 0.22.

B7: 38G10: mouse anti-C3 monoclonal antibody; VH SEQ ID NO:18, VL SEQ ID NO:19 (antibody, V domains shown)
VH: EVQLQQSGPELVKPGDSVKMSCKASGYTFTDFYMDWVKQSHGKSLEWIGYIYPHNGGTTYNQNFTGKATLTVDKSSNTAYMELHSLTSEDSAVYYCARRGGFDFDYWGQGTTLTVSS
VL: NIVMTQSPKSMSLSVGERVTLRCKASENVDTYVSWYQQKPEQSPKLLIYGASNRYTGVPDRFTGSGSATEFTLTISSVQAEDLVGYHCGQSHSYPLTFGAGTKLELK
For B7, the “binding to C3b” value in the data set with C3b turned out to be 0.06. The “binding to iC3b” value in the data set with iC3b turned out to be 0.06. For the same molecule, the “C3 binding profile (C3 versus fragments of the complement cascade)” value with C3 [3] was “bound preferentially to C3 with no detectable or very limited binding to any of the fragments of the complement cascade”. For the same molecule, in the data set with C3c, the “binding to C3c” value was found to be 0.13.

B8: Hz38G10 dsscFv: VL-linker-VH disulfide-linked scFv of Hz38G10, SEQ ID NO:113 (protein)
scFv: MDIQMTQSPSSLSASVGDRVTITCKASENVDTYVSWYQQKPGKAPKLLIYGASNRYTGVPSRFSGSGSGTDFTFTISSLQPEDIATYHCGQSHSYPLTFGCGTKLEIKGGGGSGGGGSGGGGSQVQLVQSGAEVKKPGASVKVSCKASGYTFTDFYMDWVRQAPGQCLEWMGYIYPHNGGTTYNQQFTGRVTITVDKSASTAYMELSSLRSEDTAVYYCARRGGFDFDYWGQGTLVTVSS
With B8, in data set [4], the “protein concentration reached with no visible aggregation” value was 229 mg/mL.

B9: 62F2: mouse anti-C3 monoclonal antibody; VH SEQ ID NO:105, VL SEQ ID NO:106 (antibody, V domains shown)
VH: DVQLQESGPDLVKPSQSLSLTCTVTGYSITSGYSLHWIRQFPGNKLEWMGYIHYSGSTNYNPSLKSRISITRDTSKNQFFLKLNSVTSEDTATYHCARAWDYLDYWGQGTTLTVSS
VL: DIQMTQSPASLSASVGETVTITCRASENIYSQLAWYQQKQGKSPQLLVYDAKTLAEGVPSRFSGSGSDTQFSLKIISLQPEDFGRYYCHHHFGILYTFGGGTKLEMK
As to B9, in the data set with Factor Bb, the “binding to Factor Bb” value came out at 0.00. Also, the “binding to iC3b” value with iC3b came to 0.49. The “binding to C3c” value with C3c was found to be 0.43.

B10: 38F5: mouse anti-C3 monoclonal antibody; VH SEQ ID NO:101, VL SEQ ID NO:102 (antibody, V domains shown)
VH: EVMLVESGGALVKPGGSLKLSCTASGFTFSNYAMSWVRQTPEKRLEWVAQTISSGGRYTYYPDSVKGRFTISRDNARNTLYLQMSSLRSEDTAMYYCVRRYYGNSYWYFDVWGAGTTVTVSS
VL: DIVMTQSPSSLSVSAGEKVTMNCKSSQSLLNSGNQKHYLTWYQQKPGQPPKLLIYGASTRGSGVPDRFTGSGSGTDFTLTISSVQAEDLAVYYCQNDHSYPYTFGGGTKLEIK
Consider B10, for which the “binding to iC3b” value in the data set with iC3b is reported as 0.45. Further, the “binding to C3c” value in the data set with C3c is on record as 0.45.
